The text below walks through data of article PMC4955127 (Biotechnology for Biofuels, 2016).

One data set concerns the target T1, Bgl3A (Evansstolkia leycettana, UniProt A0A1B0VFN7).
T1 construct: mature enzyme without native signal peptide (residues 1-19 of 737 removed)
T1 sequence (A0A1B0VFN7 20-737): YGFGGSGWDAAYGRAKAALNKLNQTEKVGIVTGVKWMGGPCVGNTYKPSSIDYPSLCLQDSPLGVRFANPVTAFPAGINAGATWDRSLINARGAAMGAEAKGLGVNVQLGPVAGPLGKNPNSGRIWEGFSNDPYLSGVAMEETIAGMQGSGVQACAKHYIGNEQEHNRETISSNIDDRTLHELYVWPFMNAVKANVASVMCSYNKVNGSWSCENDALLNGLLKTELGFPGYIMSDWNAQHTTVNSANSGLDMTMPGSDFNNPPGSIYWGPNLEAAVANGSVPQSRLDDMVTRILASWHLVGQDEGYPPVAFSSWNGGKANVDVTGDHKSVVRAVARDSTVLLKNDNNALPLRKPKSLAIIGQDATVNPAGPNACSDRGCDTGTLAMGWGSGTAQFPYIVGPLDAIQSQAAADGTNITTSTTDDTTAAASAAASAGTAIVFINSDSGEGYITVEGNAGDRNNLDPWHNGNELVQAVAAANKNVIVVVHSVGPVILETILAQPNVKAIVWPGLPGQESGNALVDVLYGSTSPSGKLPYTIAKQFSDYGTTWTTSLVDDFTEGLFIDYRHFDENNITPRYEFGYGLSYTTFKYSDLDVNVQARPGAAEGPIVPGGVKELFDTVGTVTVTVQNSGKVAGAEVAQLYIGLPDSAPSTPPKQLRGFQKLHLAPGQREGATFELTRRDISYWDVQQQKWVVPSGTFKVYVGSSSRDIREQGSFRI
The experiment in a line: glucose inhibition of pNPG hydrolysis. It counts as biochemical. To be noted: product inhibition; substrate pNPG.

Substrate in the data set “purified protein”: O=[N+]([O-])c1ccc(O[C@@H]2O[C@H](CO)[C@@H](O)[C@H](O)[C@H]2O)cc1
Briefly: purified protein. The note with it: 100 mM Na2HPO4-citric acid, optimal conditions (pH 4.5, 75 °C), 5 min.

In the case of `OC[C@H]1OC(O)[C@H](O)[C@@H](O)[C@@H]1O` (some centres unmarked) [glucose], on Bgl3A, the Ki (commonly a measure of affinity in units of concentration, obtained from inhibition or displacement) is 14 mM.

B1: Bgl3A (Evansstolkia leycettana) (protein)
chain: T1 sequence (A0A1B0VFN7 20-737)
Turning to B1, in the data set “purified protein”, the Km (usually the concentration of substrate that gives half-maximal velocity) amounted to 180 µM; the Vmax (as a rule, the rate approached at saturating substrate) worked out at 1310 µmol/min/mg; the kcat (as a rule, the number of substrate molecules converted per active site and unit of time at saturation) turned out to be 1660 s⁻¹; the kcat/Km (commonly the second-order rate constant that governs catalysis at low substrate concentration) is 9.1e+06 M⁻¹ s⁻¹.
